From paper PMC7820951 come the findings set out here.

Substrate in the data set: CC(C)O
Put plainly: purified protein. To be noted: alcohol oxidation; cofactor F420.

B1: ADF (F420-dependent alcohol dehydrogenase) (Methanoculleus thermophilus) (protein)
chain: MKTQIGYFASLEQYRPMDALEQAIRAEKVGFDSVWVDDHFHPWYHDNAQSAQAWAWMGAALQATKKVFISTCITCPIMRYNPAIVAQTFATLRQMYPGRVGVAVGAGEAMNEVPVTGEWPSVPVRQDMTVEAVKVMRMLWESDKPVTFKGDYFTLDKAFLYTKPDDEVPLYFSGMGPKGAKLAGMYGDHLMTVAAAPSTLKNVTIPKFEEGAREAGKDPSKMEHAMLIWYSVDPDYDKAVEALRFWAGCLVPSMFKYKVYDPKEVQLHANLVHCDTIKENYMCATDAEEMIKEIERFKEAGINHFCLGNSSPDVNFGIDIFKEVIPAVRD
For B1, the Km (commonly the substrate concentration at which the rate is half of its maximum) was found to be 1.3 mM; the kcat (as a rule, the number of substrate molecules converted per active site and unit of time at saturation) came out at 1.7 s⁻¹.
